# From the DeepSol protein solubility set
# Experiment: soluble on expression in E. coli; label from the status in PepcDB or PDB records
row,Sequence,soluble on expression in E. coli
1,QTSPMTPDITGKPFVAADASNDYIKREVMIPMRDGVKLHTVIVLPKGAKNAPIVLTRTPYDASGRTERLASPHMKDLLSAGDDVFVEGGYIRVFQDVRGKYGSEGDYVMTRPLRGPLNPSEVDHATDAWDTIDWLVKNVSESNGKVGMIGSSYEGFTVVMALTNPHPALKVAVPESPMIDGWMGDDWFNYGAFRQVNFDYFTGQLSKRGKGAGIARQGHDDYSNFLQAGSAGDFAKAAGLEQLPWWHKLTEHAAYDAFWQEQALDKVMARTPLKVPTMWLQGLWDQEDMWGAIHSYAAMEPRDKRNTLNYLVMGPWRHSQVNYDGSALGALNFEGDTARQFRHDVLRPFFDQYLVDGAPKADTPPVFIYNTGENHWDRLKAWPRSCDKGCAATSKPLYLQAGGKLSFQPPVAGQAGFEEYVSDPAKPVPFVPRPVDFADRAMWTTWLVHDQRFVDGRPDVLTFVTEPLTEPLQIAGAPDVHLQASTSGSDSDWVVKLIDVYPEEMASNPKMGGYELPVSLAIFRGRYRESFSTPKPLTSNQPLAFQFGLPTANHTFQPGHRVMVQVQSSLFPLYDRNPQTYVPNIFFAKPGDYQKATQRVYVSPEQPSYISLPVR,soluble
2,MESCLDIFKIVIGPSSSRTVGPMRAACHFISLLREQETLPLIREIEIELYGALSLSRKCHNVDTALYLGLLGCQPENVDLRSYMAVIKRAENENKIELPLSDAGGITIKVKIIANHQAHPGHPYAMTFRARDDYFTVYEETWFSTGAGQVRKHGEPLTPSLPLRTVSPFEFSHAAQLLALCRRNGLSVAALMMKNELCRHSPQTLQNYLAQIWDVMQQAVYRGLHTEGVLPGPYQVPRRACALHKTLQANRSASDFLTALNWVNAFAIAVSEENASGGQIVTAPTNGACGIIPAALCWYDKFVTPLEPGALTRFFLTAAAIAMLFKQNASILGSEVGCQGEIGVACSMAAAGLAELMGASVEQTLSAAEIAMEHHLGLTCDPLGGQVQIPCIERNAISAVKAINAATMAMSRVSEPCISLDEIIAAMYETGKDMSAKYRETYHGSLGKIQPRKRG,not soluble
3,MTTLKVKQLANKKGLNILEDSIEINESGVDFQVAHVTEQNGDKWILRIPRRPESMRHALREKEALEIMKKHAAFQVPNWSIFSEELIAYKQLSGFPAATIDIEQQKYVWNFNEKNVPTEYYISLGKVLANVHSLSQQKFNNIGVEILTANELRTSMKQRMNRVKEQYHINQNLWDRWQAWLAEDSFWPSHVGVKHGDIHPGHILIDKKNNVTGLIDWTEVGIGDVSIDFTSHYLLFGKDGLTKLIHSYDNAGGKTWSRMDEHIIELLTTSSITVAEYAQVSGLKDMHEAAIHMLATEC,not soluble
4,MELYLIRHGIAEAQKTGIKDEERELTQEGKQKTEKVAYRLVKLGRQFDLIVTSPLIRARQTAEILLASGLSCQLEESNHLAPNGNIFNWLDYWLKPKNFPENAQIAIVGHEPCLSNWTEILLWGEAKDSLVLKKAGMIGLKLPEIGSPVGRSQMFWLTPPRYLLLEHHHHHH,soluble
5,MSLAWLISEFASVGDVTVRALRYYDKINLLKPSDYTEGGHRLYTKDDLYVLQQIQSFKHLGFSLGEIQNIILQRDIETEVFLRQMHFQREVLLAEQERIAKVLSHMDEMTKKFQKEERVNVALFSSFLQTFIWEKENKEWLEEHFSTESIQAFYNNKELKEKFDRRFMDVIGKLKKYKEEEKDPSHHDVQVTLKEFFHLIEKITDYLDISQSEVVSVIKQSKISMAEFPTLFTNEEEQYIKEAMNKEGHHHHHH,soluble
6,PSPSTEQSAKKVRKKAENAHNTPLLVLYGSNMGTAEGTARDLADIAMSKGFAPQVATLDSHAGNLPREGAVLIVTASYNGHPPDNAKQFVDWLDQASADEVKGVRYSVFGCGDKNWATTYQKVPAFIDETLAAKGAENIADRGEADASDDFEGTYEEWREHMWSDVAAYFNLDIENSEDNKSTLSLQFVDS,soluble
7,MGSDKIHHHHHHMEENIWWRGKDYIEEDEDIKKWNSAKFKWIPKEINKISLQPFSLNFIVGPRQVGKTTLIKLLIKKLLESNHNPLSIFYCSCDLVSDYEELLKRTRDYLKIRKQEGIKSSFIFLDEVTFVKEWYRAVKHLIDTGELTSDVVTVSGSSSLTILKQKESFPGRRGNGTDVILYPLSFSGYINVINPKIEVRPGWYSEIEELFESYLKVGGLPPSINGLSPLKTYTEWIIYEINRVGRDEMLAKQILSAVLSTTPSKVSYNSIAKEIGVNHRTVAEYIKLFNDMFLTLTLHFIDVNTGYYNYRKQIKIHFVDPLFYDVMSTWTGVKRPDDPIIVEGIVASHLSRIYSIGYTEVGKEEIDVVTLPEVIGYEVKYRERTKQVKVIAGKMKKVITLSKHGENDTFPVHLFLAELNI,not soluble
8,MSERLSITPLGPYIGAQISGADLTRPLSDNQFEQLYHAVLRHQVVFLRDQAITPQQQRALAQRFGELHIHPVYPHAEGVDEIIVLDTHNDNPPDNDNWHTDVTFIETPPAGAILAAKELPSTGGDTLWTSGIAAYEALSVPFRQLLSGLRAEHDFRKSFPEYKYRKTEEEHQRWREAVAKNPPLLHPVVRTHPVSGKQALFVNEGFTTRIVDVSEKESEALLSFLFAHITKPEFQVRWRWQPNDIAIWDNRVTQHYANADYLPQRRIMHRATILGDKPFYRAGLEHHHHHH,soluble
9,MDAAKVRSEFDEKMMRYALELADKAEALGEIPVGAVLVDDARNIIGEGWNLSIVQSDPTAHAEIIALRNGAKNIQNYRLLNSTLYVTLEPCTMCAGAILHSRIKRLVFGASDYKTGAIGSRFHFFDDYKMNHTLEVTSGVLAEECSQKLSTFFQKRREEKKIEKALLKSLSDKLEHHHHHH,not soluble
10,MSFSESRHNENCLIQEGALLFCEQAVVAPVSGDLVFRPLKIEVLSKLLAFIDGAGLVDTTYAESDKWVLLSPEFRAIWQDRKRCEYWFLQQIITPSPAFNKVLALLRKSESYWLVGYLLAQSTSGNTMRMLGEDYGVSYTHFRRLCSRALGGKAKSELRNWRMAQSLLNSVEGHENITQLAVNHGYSSPSHFSSEIKELIGVSPRKLSNIIQLADK,not soluble
11,MDLWKLYQPGTPAAIVAWGQLGTAHAKTTYGLLRHSRLFKPVCVVAEHEGKMASDFVKPVRYDVPVVSSVEKAKEMGAEVLIIGVSNPGGYLEEQIATLVKKALSLGMDVISGLHFKISQQTEFLKIAHENGTRIIDIRIPPLELDVLRGGIYRKKIKVVGVFGTDCVVGKRTTAVQLWERALEKGIKAGFLATGQTGILIGADAGYVIDAVPADFVSGVVEKAVLKLEKTGKEIVFVEGQGALRHPAYGQVTLGLLYGSNPDVVFLVHDPSRDHFESFPEIPKKPDFEEERRLIETLSNAKVIGGVSLNGGFETDLPVYDPFNTDDLDEMLERAMVW,not soluble
12,MTQHSRDTPQFYLTAPSPCPYLPGRHERKVFTHLVGNKAGELNDLLTHGGFRRSQSIAYRPACDQCRACVSVRVIANEFKPSRNQRKLLARNADIVGEQRNPVPTSEQYSVFRAYLDQRHRYGGMADMTVLDYAMMVEDSHVQTRMIEYRKRTPDTGITGRGGELIAAALTDVLGDGLSMVYSFYEPNEQHRSLGTFMILDHIARARRLGLPYVYLGYWIEGSKKMDYKGRYLPQQRLAPSGWLRIDASGEMQPEPQDLEHHHHHH,not soluble
13,MTESEVRKLLRRMKELDSQTAFRAFYDMTYDRLYRIAYYYVKREEWSQEIVLDVFLKLWEQRSSLPEVKSIEDYCFILVKNASLNYLEKENRRTTVSTETLPEPEAQSDSPEESMISEELFAIYVKALDRLPERCREVFIRIREEKQSYAQVAEELGISTKTVDAQLQKATIRLKEAISMVNNDR,not soluble
14,EVQLQQSGPELKKPGETVKISCKATNYAFTDYSMHWVKQAPGGDLKYVGWINTETDEPTFADDFKGRFAFSLDTSTSTAFLQINNLKNEDTATYFCVRDRHDYGEIFTYWGQGTTVTVSA,soluble
15,ELVMTQTPLSLPVSLGDQASISCRSSQSLVHSNGNTYLHWYLQKPGQSPKFLIYKVSNRFSGVPDRFSGSGSGTDFILKISRVEAEDLGVYFCFQSTHFFPTFGGGTKLEIKRTVAAPSVFIFPPSDEQLKSGTASVVCLLNNFYPREAKVQWKVDNALQSGNSQESVTEQDSKDSTYSLSSTLTLSKADYEKHKVYACEVTHQGLSSPVTKSFNRGEC,soluble
16,GIDPFTQRLNFGDDIPSALRIAKKKRWNSIEEKRISQENELHAYLSKLILAEKERELDDRVKQSDDSQNGGDISKMKSKHDKYLMDMDELFSQVDEKRKKREIPDYLCGKISFELMREPCITPSGITYDRKDIEEHLQRVGHFDPVTRSPLTQDQLIPNLAMKEVIDAFIQENGWVEDY,soluble
17,QESVEDSLATVKVVLIPVGQEIVIPFKVDTILKYLKDHFSHLLGIPHSVLQIRYSGKILKNNETLVQHGVKPQEIVQVEIFSTNPDLYPVRRIDGLTDVSQIITV,soluble
18,MANVAFGFQEAVFTLESMVANIERQAQTIEKLINENKQLRQENQQLKARIAELEARTKKNSTNSHFPPSSDRFGAKSPSRPPSEKRPGGQPGHQGTTLRQSPNPDHRVLHRVTQCKGCGHSLEHIDPLQVDIRQVFDLPVVRMEVTQHEREIKRCPECRLVQQAEFPFYVTNHVQYGPAVTSLILYWNHAQLIPCERVTEMVKALTGHSMSAGTVVNMTRRWQPVAEAAIEEIEAALLTSSTLHVDETSLRVKGTKQWVHVASTSKETRYGIHRSRGKQATDDIGILPRYKGTMVHDAYAVYPMYTQASHALCHAHHLRELREYTELYHHSWSNKMAEALLEMKQAVEKAGGALPEEKVRYWEAVYDELLSNGRQELDERCRQGNYLGVRKAEHFIRRLEKRKQEALLFLRKKEVPFDNNQAERDLRMVKVKQKISGTFRQEDDAEAFCVIRSVVSTLQKHGKPVWESLQRLLSGESLQTILQSS,not soluble
19,GPGSMPAYSEVKGTCGTPVLDQLIGYYVNIQSRKMYYKDFLRIEHQAVRWAFADIRKNSEALAHGLLQTGVRPGDRVLAIQPCNCETFVLQLSCAKIGALLCIVPQDTISADKLRFYLNEFQPRHLVAREWINVPEMKQGELVERNMHFWDTIYNVIPELGLSYPGQKFQWVHSQEFYYLKKIIITDHNMNLLGVTPMRKMLVWGPFSYYEQRLRRLSALLHPDDPVLALEDPNPAMEDKLHITYSHRNCVNAGFLFGQLMQLKAETRFGVMPNHHTDPIGAIIAPYAALTSGAVLVHIHSDMFTDDHAINGIEKLCVEEVETLVGRKADFDLILKHAGNFDADQFEHLRSVVIFEDGIEAPVSEEYLNKLSKALSLDDVYVFRGPIEASYMLTWRTLKKGSQGMVPHVEAKVVGDRGTSDAKVLVAGTRGNLRLKGPHVTAGYYNNAGLMTELIDEHGFASTSREAMIDGKDNITLMSAQTY,not soluble
20,MGSDKIHHHHHHMSLEKERIEKEHIEEMNQAKLRFFTNVSHEFRTPLTLIISQVELMLQKNTIPPSLHNSIFRIRKHAQQMKLLISELLDFRKFDQNYIQLKLSEQSLNTFLEEVYLSFSAYASQKSISYHLKLLEQDISIWIDDWQMRKVLFNLLSNAFKHVPDKGEISILTSTTPDQVVIAVKDSGNGISKEEQERIFDRFYQADNRNKAIHVGTGIGLALTKSIIQLHHGTIEVESELNEGSCFIVKLPKTRDCFEKDTEVVFLESPEKEPMVQENTIPDENFMKKDDSTFETPLIDEREGKRKVLLVEDNVELLQVLKEIFSSLYQVVTAANGEEGLKQAFAEVPDLIVSDVMMPVMTGTEMCLKIKNNINLCHIPVVLLTALDTVDQNIEGLRRGADDYITKPFNAKILITRCNNLIRNRLLMQSRFAKDQILEINLLAANPIDKGFLDRVIKVVDKHIDNEDFDIGMLCQELGMGRTLLHTKFKALTGMTPNEFILNHRLKIASLMLKNEPYLQVAEISDRLGFGSPRYFSRCFKNQYNVTPMEYRKGAKQENLK,not soluble
